Article PMC5386376, “Structural insight into an evolutionarily ancient programmed cell death regulator – the crystal structure of marine sponge BHP2 bound to LB-Bak-2” (Cell Death & Disease, 2017)

T1: BHP2 (pro-survival Bcl-2 homolog from Geodia cydonium), residues 18-200 (Geodia cydonium, UniProt Q967D2 18-200)
T1 construct: BHP2, Geodia cydonium, Uniprot Q967D2, residues 18-200; codon-optimized synthetic cDNA; also called recombinant BHP2; source: E. coli BL21 (DE3) star, purified (Glutathione Sepharose 4B, HRV 3C protease cleavage on column, Superdex S200 SEC)
T1 sequence (looked up): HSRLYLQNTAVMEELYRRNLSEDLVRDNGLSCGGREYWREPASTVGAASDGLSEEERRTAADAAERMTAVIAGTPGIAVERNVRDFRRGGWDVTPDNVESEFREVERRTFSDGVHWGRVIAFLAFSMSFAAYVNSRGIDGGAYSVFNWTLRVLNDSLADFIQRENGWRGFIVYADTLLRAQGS

B1: LB-Bak-2 BH3 peptide (residues 62-89) (peptide, UniProt Q1RPT5 62-89, looked up)
peptide: ALASSMASEVGRRLAEFGDQVDGQFYQE
notes: LB-Bak-2, Lubomirskia baicalensis, Uniprot Q1RPT5, BH3 motif, residues 62-89; also called LB-Bak-2 BH3 motif; LB-Bak-2 BH3 domain; source: synthetic peptide (GenScript), purified to 95%
B2: human Hrk BH3 peptide (peptide)
chain: not shown

Target: T1, BHP2 (pro-survival Bcl-2 homolog from …)
Assay: ITC; BH3 peptide (200 μM) titrated into BHP2 (20 μM), 19 injections of 2.0 μl, MicroCal iTC200, 25 °C, 25 mM HEPES pH 7.5, 150 mM NaCl; triplicate
Settings: both partners purified

Row | Binder | Kd [nM]
1 | B1 | 65
2 | B2 | 3760
